Experiment: yeast display, Sf9 membrane polyspecificity reagent, FACS + sequencing; frameworks hold sequencing errors
Method in brief: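 A nanobody's polyreactivity label depends on the gate it was sorted from. Yeast display cells were stained with 10% biotinylated, detergent-solubilized Sf9 membrane reagent for 1 hour at 4 °C, enriched on streptavidin microbeads and sorted by FACS. The low and high (top ~1%) gates were set on anti-HA fluorescence for expression and streptavidin fluorescence for reagent binding.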

Row | Sequence | polyreactivity (PSR sort gate)
1 | QVQLVESGGGLVQAGGSLRLSCSASGFIFYGYTMGWYRQAPGKERELVAAITFSGGRTYYADSVKGRFTISRDHAKNTVYLQMNSLKPEDSAVYYCAALHYGRYRMDYWGQGTQVTVSS | high polyreactivity
2 | QVQLVESGGGLVQAGGSLRLSCAASGSTFAINAMGWYRQAPGKERELVAAMSSSGSTNYADSGNGRFTISRDNAKNTVYLQMNSLKPEDTAVYYCAADRVWGTPQAYVPSQFDYWGQGTQVTVSS | low polyreactivity
3 | QVQLVESGGVLVQAGGSIRLSCAASGSTSYIYVMGWYRQAPGKERELVATISKNGGDTYADSVKGRFTISRDNAKNTVYLQMNSLKPEDTAVYYCNARAFRYNRRISSRYNYWGQGTQVTVSS | high polyreactivity
4 | QVQLVESGGGLVQAGGSLRLSCAASGRTLKVYAMGWYRQAPGKERELVAAINNGGSTNYADSVKGRFTISRDNAKNTVYLQMNSLKPEDTAVYYCNAVYYARYRKYTYYYWGQGTQVTVSS | high polyreactivity
5 | QVQLVESGGGLVHAGGSLRLSCAASGITSSQNAMGWYRQAPGKERELVAAISWRGGSTYYADSVKGRFTISRDNAKNNVYLQMNSLKAEDTAVYYCNVVKRSLRYDYWGQCTQVTVSS | high polyreactivity
6 | QVQHVESGGGLVQAGGSLRLSCAASGFIFWYYAMGWYRKAPGKERELVAAISSRGGSTYYADSVKGRFTISRDNAKNTVYLQLNSLKPEDTAGYYCATPSKALPPHGRAILDYWGQGTQVTVSS | high polyreactivity
7 | QVQLVESGGGLVQAGGSLRLSCAASGSIFVWNDMGWYRQAPGKERELVASIRSGVSTYYADSVKGRFTISRDNAKNTVYLQMNSLKPEDTAVYYCAKKGPIHYIYDSWGQGTQVTVSS | low polyreactivity
8 | QVQLVESGGGLVQAGGSLRLSCAASGGIFNTYAMGWYRQAPGKEREFVAAISRRGGGTYYADSVKGRFTISRDNAKNTVYLQMNSLKPEDTAVYYCNADDKRGSRGYGSDHWGQGTQVTVSS | high polyreactivity
9 | QVQLVESGGGLVQAGGSLRLSCAASGRTFYPYAMGWYIQAPGKEREFVATITWSGTTTYYADSVKGSFTISRDNAKNTFYLQMNSLKPVDTAVYYCAADVWEVVTPYGTIDDDYWGQGTQVTVSS | high polyreactivity
10 | EVQLVESGGGLVQAGGSLRLSCAASGRTFNRYTMGWYRQAPGKERELVAAISRGAGTNYADSVKGRFTISRDNAKNTVYVQMNSLKPEDTAVYYCNARPYGWYASHEYGYWGQGTQVTVSS | high polyreactivity
11 | QVQLVESGGGLVQAGGSLRLSCAASASIVFTYVMGCYSQAPWKERELVSAITSDDNTNYADSVKGRFTISRVNAKNTVYLQMNSLKPEDTAVYYCNADTTLYPYYEYGYYDYDYWGHGTQVTVSS | low polyreactivity
12 | QVQLVESGGGLVQAGGSLRLSCAASGSIFKYNAMGWYRQAPGKERELVAAISNDGGRTYYADSVKGRFTISRDNAKNTVYLQMNSLKPEDTPVYDGNVVRVRYYWWEFDYWGQGTQVTVSS | high polyreactivity
13 | QVQHGESGGGLLQAGGSLRLSCAASGFIFGVYEMGWYRQAPGKDTELVAAIMRSGGSTYYADSVKGRFTISRDIAKNTVYLQMNSLKPEDTAVYYCAAAYTGKYRKYDYWGQGTQVTVSS | high polyreactivity
14 | QVQLVESGGGLVQAGGSLRLSCAASGSTLRYYAMGWYRQAPGKERELVARIRSNGGSTYYADSVKGRFTISRDNAKNTVYLQMNSLKPEDSAVYYCAARTYRGQYYTGFGFGYWGQGTQVTVSS | high polyreactivity
15 | QVQLVESGGGLVQAGGSLRLSCAASGSTFDYYDMGWYRQAPGKERELVATITSGGSTNYADSVKGRFTISRDNAKNTVYLQMNSLKPEDTAVYDCAADIGGDGEGYDYWGQGTQVTVSS | low polyreactivity
16 | QVHLVESGGGLVQAGGILRLSCPASGSTFVYYAMVWYRQAPGKERELVAAISRSGGNTYYAYSVKGRFTISRDNAKNTVYLQMNSLKQEDTAVYYCAARSYGVQYYYWGQGTQVTVSS | high polyreactivity
17 | QVQLVESGGGLVQAGGSLRLSCAASGYIFQPYAMGWYRQAPGKERELVAAIDWTGGRTYYADSVKGRFTISRDNAKNTVYLQMNSLKPEVTAVYYCNADFGYWWDGRRYDYWGQGTQVTVSS | low polyreactivity
18 | QVQLVESGGGLDQAGGSLRLSCAASGFIFPIYAMGWNRQAPGKERELVAAISWSGGSTYYADSVKGRFTISRDNAKNTVYLQMNSLKPEDTAVYYCAKRYPYYPYDYWGQGTQVTVSS | high polyreactivity
19 | QVQLVESGGGLDQAGGSLRLTCAASGNTSEYYAMGWSRQAPGKERQLVAAIRSDVRTYYADSVKGRFTISRDNAKNTVYLQMNSLKPEDTAVYYCNADKSAWDYYLQTFNYWGQGTQVTVSS | high polyreactivity
20 | QVQLVESGGGLVQAGGSLRLSCAASGSTFSTYAMGWYRQAPGKERELVARITRGGSTNYADSVKGRFTISRDNAKNTVYLQMNSLKPEDTAVYYCAAGIRSGRKYDYWGQGTQVTVSS | low polyreactivity
21 | QVQLVESGGGLVQAGGSLRLSCAASGSIFGDNTRGWYRQAPGKERELVAAISWRGGSTYYADSVKGRFTISRDNSKNTVYLQMNSLKPEDTAVYYCIGGPGGYDYWGQGTQVTVSS | low polyreactivity
22 | QVQLVESGGGLVQAGGSLRLSCAASGIIFYGYAMGWYRQAPGKERELVATIRDSGAGTYYADSVKGRFTISRDNAKNTVYLQMNSLKPEDTAVYYCAATGWIRYDSWGQGTQVTVSS | low polyreactivity

Row | Sequence | polyreactivity (PSR sort gate)
23 | QVQLVESGGGLVQAGGSLRLSCAASGSTFDGNAMGWYRPAPGKVRELVAAITRAGRTSYADSVKGRFTISRDNAKNTVYLQMNSLKPEDTAVYYCAKGGYDYWGQGTQVTVSS | low polyreactivity
24 | QVQLVESGGGLVQAGGRHRLSCAASGYIFKYYAMGWYRQAPGKERELVAAISRSGDSTYYADSVKGRFTISRDHAKNTVYLQMNSLKPEDTAVYYCNARYWHGPTGSDYWGQGTQVTVSS | high polyreactivity
25 | QVLLVESGGGVVQAGGSLRLSCASSGFTYGSYAMGWYRQAPGKERELVAGITRSSGSTYYADSVKGRFTISRDNAKITDYLQMNSLKPEDTAVYYCRQFSVWGYDYWGQGTKVTVSS | high polyreactivity
26 | QVQLVESGGGLVQAGGSLRLSCAASGRISLSNAMGWYKQAPGKEREFVAAITKRSDRTYYADSVKGRFTISRDNAKNTVYLQMNSLKPEDTAVYYCAAKPLFGTRDDYWGQGTQVTVSS | low polyreactivity
27 | QVQLVESGGGLVQAGGSLRLSCAASGITFFGYAMGWYRQAPGKERELVAAISYSGGSTYYADSVKGRFTISRDNAKNTVYLQMNSLKPEDTAVYYCNARQAGTRYKYGYYGRYYWGQGTQVTVSS | high polyreactivity
28 | QVQLVESGGGLDQAGGSLRLSCAASGSIYNRYAMGWYRQAPGKERELVADISSGGGTSYADSVKGRFTISRDNAKNTVYLQMNSLKPEDTAVYYCAAELYYWTYVRFDYWGQGTQVTVSS | high polyreactivity
29 | QVQLVESGGGLVQAGGSLRLSCAASGSIFEWYAMGWYRQAPGKDRELVADITYNGGSTYYADSVKGRFTISRDNAKNTVYLQMNSLKPEDTAVYYCAADYFVQVPDYYYASEYGYWGQGTQGTVSS | low polyreactivity
30 | QVQLVESGGGLVQAGGSLRLSCAASGLTFRWYAMGWYRQAPGKERELVAAISSSGRTNYADSVKGRFTISRDNAKNTVYLQMNSLKPEDTAVYYCAADSSWRTSDYWGQGTQVTVSS | low polyreactivity
31 | QVQLVESGGGLVQAGGSLRLSCAASGRTFNRYVMGWYRQAPGNERELVAALTSSGRTNYADSVKGRFTLSRDNAKNTVYLQMNSLKPEDTAVYYCAKGLYRRYYRVWWLRGDYWGQGTQVTVSS | high polyreactivity
32 | QVQLVESGGGLVQAGGSLRLSCAASGRTFNPYVMGWYRQAPGKERELVAVITSSGDSTYYADSVKGRFTISRDNAKNTVYLQMNSLKPEDTAVYYCNADYLYYDYDYWGQGTQVTVSS | high polyreactivity
33 | QVQLVESGGGLVQAGGSLRLICAASGITFYDYAMGWYRQAPGKERELVAVITRRGGSTYYADSVKGRFTISRDNAKNTVYLQMNSLKPEDTAVYYCAADWRGWSFVRGDDYWGQGTQVTVSS | high polyreactivity
34 | QVQLVESGGGLVQAGGSLRLSCAASGLIFVGYAMGWYRQAPGKERELVAAITSGGSTYYADSVKGRFTISRDNAKNTVYLQMNSLKPEDTAVYYCAAQQGISNGTGVSATNPMDYWGHGTQVTVSS | low polyreactivity
35 | HFQREESGGGLVQAGGSLRLTCAASGSTFGPYVMGWYRQARGKERELVAAISDTTGNTYYADSVKGRFTLSRDNAKNTVYLQMNSLKPEDTAVYYCNVDWYWGDYDYRGQGTQVTVSS | low polyreactivity
36 | QVQLVESGGGLVQAGGSLRLSCAASGSTFFNYAMGWYRQAPGKEREFVARIRWRGGSTYYADSVKGRFTISRDNAKNTVYLQMNSLKPEDTAVYYCNADYWGHGGLYDYWGQGTQVTVSS | high polyreactivity
37 | QVQLVESGGGLVQAGGSLRLSCAASGRIFAPYDMGWYRQAPGKERELVAAISRSGGSTYYADSVKGRFTISRDNAKNSVYFQLNSLKPEDTAVYYCAASYPGRYWLYRYEYWGQGTQVTVSS | high polyreactivity
38 | QVQLVESGGGLVQAGGSLRLSCAASGSIFTYYAIGWYRQAPWKERELVAAISWSDGNTYYADSVKGRFTISRDNAKNTVYLQMNSLKPEDSAVYYCAAEYYVSRYWYPYDFYIMNYWGQGTQVTVSS | high polyreactivity
39 | QVQLLESGGGLFQTGGSLRLSCAASGRTFWNYAKGWYRQAPGKERELVAVIRFSDGSTYYADSVKGRFTISRDNAKNTVYLQMNSLKPQDTAVYYSAAKGPRRWGSGFDYWGQGTQVTVSS | low polyreactivity
40 | QVQLVESGGGLVQAGGSLRLSCAASGLILKYYAMGWYRQAPGKEREFVAAITRRGGITYYADSVKGRFTISRDNAKNTVYLQMNSLKPEDTAVYYCAADPKLGSLAYWRYSYPLYDYWGQGTQVTVSS | low polyreactivity
41 | QVQLVESGGGLVQAGGSLRISCAASGRTFYWYAMGWYRQAPGKERELVAAISAGGGRTYCADSVKGRFTISRDNAKNTVYLQMNSLKPEDTAVYYCAADFQRGAKYTYDFWGQGTQVTVSS | high polyreactivity
42 | QVQLVESGGGLVQAGGSLRLSCAASGYTFAWYAMGWYRQAPGKERELVAAITTSGGGTYYADSVKGRFTISRDNAKNTVYLQMNSLKPEDTAVYYCAADTWRDGDDYWGQGTQVTVSS | low polyreactivity
43 | QVQLVESGGGLVQAGGSLRLSCAASGGTFNHYAMGWYRQAPGKERELVASITNGASTYYADSVKGRFTISRDNAKNTVYLQMNSLKPEDTAVYYCAKRGRVGKYRYEYWGQGTQVTVSS | low polyreactivity

From the nanobody polyreactivity screen of Harvey et al. (2022)
